T1: mouse GPRC5D (mouse, UniProt Q9JIL6 1-344)
T1 construct: whole, on cells; HEK293T-mGPRC5D cells; also called mGPRC5D; murine GPRC5D
T1 sequence (looked up): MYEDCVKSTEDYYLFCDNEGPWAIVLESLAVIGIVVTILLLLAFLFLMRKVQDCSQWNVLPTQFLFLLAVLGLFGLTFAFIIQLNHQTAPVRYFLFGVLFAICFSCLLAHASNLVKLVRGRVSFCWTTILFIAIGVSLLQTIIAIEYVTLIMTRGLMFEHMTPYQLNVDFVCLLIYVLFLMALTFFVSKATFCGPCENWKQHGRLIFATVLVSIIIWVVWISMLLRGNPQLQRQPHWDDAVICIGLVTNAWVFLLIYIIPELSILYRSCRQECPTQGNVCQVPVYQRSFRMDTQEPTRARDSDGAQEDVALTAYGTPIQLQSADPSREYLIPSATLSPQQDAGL


Key:
mouse GPRC5D [1] = target: T1, mouse GPRC5D; assay: FACS, HEK293T-mGPRC5D cells
human GPRC5D [2] = target: T2, human GPRC5D (human, UniProt Q9NZD1 1-345); assay: FACS, CHOS-hGPRC5D cells
T2 construct: whole, on cells; also called hGPRC5D; G-protein coupled receptor family C group 5 member D

cynomolgus monkey GPRC5D [3] = target: T3, cynomolgus monkey GPRC5D (cynomolgus monkey); assay: FACS, HEK293T-cynoGPRC5D cells
T3 construct: whole, on cells; HEK293T-cynoGPRC5D cells; also called cynoGPRC5D

human GPRC5D [4] = target: T2, human GPRC5D; assay: FACS, OPM-2 cells
From the text: (§1) The subcloning plates were screened by Mirrorball assay and the subclones with good binding ability were expanded to 24-wells for confirmation tests. The specificity and cross-reactivity of these subclones were confirmed with FACS analysis. Briefly, parental HEK293T, HEK293T cells stably over-expressing human GPRC5D protein (i.e., HEK293T-hGPRC5D), HEK293T cells stably over-expressing cynomolgus monkey GPRC5D protein (i.e., HEK293T-cynoGPRC5D), HEK293T cells stably over-expressing mouse GPRC5D protein (i.e., HEK293T-mGPRC5D), and OPM2 cells were incubated with antibodies produced by each subclone, respectively. Fluorescent dye-conjugated secondary antibody was used to detect the binding of the primary antibody with the cells. Median fluorescence intensity (MFI) was measured by FACS analysis,
(§2) As a result, 21 antibodies were discovered with unique sequences showing positive binding with HEK293T-hGPRC5D and OPM2 cells. Among which, some clones could also bind with HEK293T-cynoGPRC5D and/or HEK293T-mGPRC5D. […] ATG596 was a positive human IgG1 control antibody which comprises a VH region having an amino acid sequence as set forth in SEQ ID NO: 199, and a VL region having an amino acid sequence as set forth in SEQ ID NO: 200.

cynomolgus monkey GPRC5D [5] = target: T3, cynomolgus monkey GPRC5D; assay: FACS, HEK293T-cynoGPRC5D cells; remark: listed apart in the source
From the text: as §1, §2

mouse GPRC5D [6] = target: T1, mouse GPRC5D; assay: FACS, HEK293T-mGPRC5D cells; remark: listed apart in the source
From the text: as §1, §2

human GPRC5D [7] = target: T2, human GPRC5D; assay: FACS, HEK293T-hGPRC5D cells
From the text: as §1, §2

T2 sequence (Q9NZD1 whole entry): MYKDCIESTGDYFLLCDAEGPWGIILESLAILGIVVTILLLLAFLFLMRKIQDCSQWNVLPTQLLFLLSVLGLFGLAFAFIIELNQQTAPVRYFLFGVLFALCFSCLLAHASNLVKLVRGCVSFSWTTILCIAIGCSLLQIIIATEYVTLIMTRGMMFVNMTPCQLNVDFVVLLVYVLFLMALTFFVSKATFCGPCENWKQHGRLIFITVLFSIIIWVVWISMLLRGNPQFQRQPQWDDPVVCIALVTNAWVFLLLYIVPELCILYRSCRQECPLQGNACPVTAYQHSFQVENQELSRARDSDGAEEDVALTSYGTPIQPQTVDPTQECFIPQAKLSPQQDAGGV

| Binder | EC50 (mouse GPRC5D [1]) [nM] | Top (mouse GPRC5D [1]) | EC50 (human GPRC5D [2]) [nM] | Top (human GPRC5D [2]) | EC50 (cynomolgus monkey GPRC5D [3]) [nM] | Top (cynomolgus monkey GPRC5D [3]) | % Positive (human GPRC5D [4]) [%] | MFI (human GPRC5D [4]) | % Positive (cynomolgus monkey GPRC5D [5]) [%] | MFI (cynomolgus monkey GPRC5D [5]) | % Positive (mouse GPRC5D [6]) [%] | MFI (mouse GPRC5D [6]) | % Positive (human GPRC5D [7]) [%] | MFI (human GPRC5D [7]) |
| --- | --- | --- | --- | --- | --- | --- | --- | --- | --- | --- | --- | --- | --- | --- |
| ch101B3G3 (antibody, V domains shown) VH: EVQLQQSGPELVKPGASMKISCKASGYSFTGYTMNWVKQSHGKNLEWIGLINPYNGGTRYNQKFKDKATLTVDKSSSTAYMELLSLTSEDSAVYYCARWLLRYAMDYWGQGTSVTVSS VL: DIVMTQSQKFMSTSVGDRVSITCKASQNVGNAVAWYQQKPGHSPKLLISSASNRKNGVPDRFTGSGSGTDFTLTVSNMQSEDLADYFCQQYSDSSWTFGGGTKLEIK | 38.6 | 57600 | 4.85 | 3940 | 9.2 | 68900 |  |  |  |  |  |  |  |  |
| 90G6H3 (antibody, V domains shown, Mouse monoclonal antibody from hybridoma subclone) VH: QAYLQQSGAELVRSGASVKMSCKASGYTFTSYIMHWVKQTPGQGLEWIGYIYPGNGGTNYNQKFKDKATLSADTSSSTAYMQINSLTSEDSAVYFCARWGLRQGFAYWGQGTLVSVSA VL: DIVMTQSQKFMSTSVGDRVSVTCKASQNVGGNVAWYQQKPGQSPKALIYSTSYRNSGVPDRFTGSGSGTDFTLTISNVQSEDLAEYFCQQYNSYPFTFGSGTKLEIR |  |  |  |  |  |  | 97.3 | 712 | 99.4 | 11400 | 87.4 | 2230 | 96.7 | 4940 |
| 89F11E3 (antibody, V domains shown, Mouse monoclonal antibody from hybridoma subclone) VH: QVQLQQSGAELARPGASVKMSCKASGYTFTSSTIHWVKQRPGQGLAWIGYIVPSTGYTNYNQKFKDKATLTADKSSSTAYMQLTSLTSEDSAVYYCARSDGYPFGYSMAYWGQGTSVTVSS VL: DIQMNQSPSSLSASLGDTITITCHASQNINVWLSWYHQKPGNIPKLLIYKASNLHTGVPSRFSGSGSGTGFTLTISRLQPEDIATYYCQQGQSYPFTFGSGTKLEIK |  |  |  |  |  |  | 98.1 | 999 | 98.8 | 16500 | 74.6 | 1100 | 96.7 | 19200 |
| ch89F11E3 (antibody, V domains shown) VH: QVQLQQSGAELARPGASVKMSCKASGYTFTSSTIHWVKQRPGQGLAWIGYIVPSTGYTNYNQKFKDKATLTADKSSSTAYMQLTSLTSEDSAVYYCARSDGYPFGYSMAYWGQGTSVTVSS VL: DIQMNQSPSSLSASLGDTITITCHASQNINVWLSWYHQKPGNIPKLLIYKASNLHTGVPSRFSGSGSGTGFTLTISRLQPEDIATYYCQQGQSYPFTFGSGTKLEIK | 14.2 | 77300 | 2.41 | 2600 | 278 | 40500 |  |  |  |  |  |  |  |  |
| ch87A3G8 (antibody, V domains shown) VH: QVQLKESGPGLVAPSQSLSITCTVSGFSLSSYSVYWVRQPPGKGLEWLGVIWAGGSTNYNSALMSRLSINKDKSKSQVFLKMNSLQTDDSAIYYCAMRWLPRGLDFWGQGTSVTVSS VL: DIVMTQSHKFMSTSVGDRVSITCKASQDVGTAVAWYQQKPGQSPKLLIYWASTRHTGVPDRFTGSGSGTDFTLTISNVQSEDLADYFCQQYSTYYTFGGGTKLEIK | 15 | 76200 | 2.81 | 1950 | 9.74 | 42200 |  |  |  |  |  |  |  |  |
| 82A1C10 (antibody, V domains shown, Mouse monoclonal antibody from hybridoma subclone) VH: QVQLKESGPGLVAPSQSLSITCTVSGFSLTNYAVTWVRQPPGKGLEWLGVIWGDGSTYYHSALVSRLSITKDNSRTQVLLKLNSLQTDDTARYYCAKGGYSPFAYWGQGTLVTVSA VL: DVVMTQTPLSLPVSLGDQASISCRSSQSLVHSNGNTYLHWYLQKPGQSPKLLIFKVSNRFSGVPDRFSGSGSGTDFTLKISRVEAEDLGVYFCSQNTHVPFTFGSGTKLEIK |  |  |  |  |  |  | 94.8 | 550 | 94.2 | 1070 | 4.5 | 119 | 99.4 | 8090 |
| 96C9E7 (antibody, V domains shown, Mouse monoclonal antibody from hybridoma subclone) VH: EVQLQQSGPELVKPGASVKMSCKASGYTFTYYILHWVKQKPGQGLEWIGYFNPYNDGNKFNERFRGKATLTSDKSSSTAYMELNSLTSEDSAVYFCARGGVRRYFDVWGAGTTVTVSS VL: DIQMTQSPSSLSASLGERVSLTCRASQDIGSNLNWLQQEPDGTIKRLISATFSLDSGVPKRFSGSRSGSDYSLTISSLESEDFVNYYCLQYASFPYTFGGGTKLEIK |  |  |  |  |  |  | 99.9 | 1930 | 71.7 | 4020 | 49.2 | 202 | 58.8 | 680 |
| ch110B4H5 (antibody, V domains shown) VH: EVQLQQSGPELVKPGASVKMSCKASGYTFTFYIMHWVKQKPGQGPEWIGYINPYNDGTKYNAKFKGKATLSSDRSSSTAYMELSSLTSEDSAVYYCARGGVRRYFDVWGAGTPVTVSS VL: DIQMTQSPSSLSASLGERVSLTCRSSQDIGSNLNWLQQEPDGTIKRLIYATFSLDSGVPKRFSGSRSGSHYSLTISSLESEDFVVYYCLQYGSFPYTFGGGTKLEIK | 14.2 | 42900 | 2.74 | 1820 | 4.87 | 27600 |  |  |  |  |  |  |  |  |
| ch96C9E7 (antibody, V domains shown) VH: EVQLQQSGPELVKPGASVKMSCKASGYTFTYYILHWVKQKPGQGLEWIGYFNPYNDGNKFNERFRGKATLTSDKSSSTAYMELNSLTSEDSAVYFCARGGVRRYFDVWGAGTTVTVSS VL: DIQMTQSPSSLSASLGERVSLTCRASQDIGSNLNWLQQEPDGTIKRLISATFSLDSGVPKRFSGSRSGSDYSLTISSLESEDFVNYYCLQYASFPYTFGGGTKLEIK | 18.5 | 19200 | 1.97 | 2830 | 8.25 | 34300 |  |  |  |  |  |  |  |  |

The remaining lines, values ahead:

| EC50 (mouse GPRC5D [1]) [nM] | Top (mouse GPRC5D [1]) | EC50 (human GPRC5D [2]) [nM] | Top (human GPRC5D [2]) | EC50 (cynomolgus monkey GPRC5D [3]) [nM] | Top (cynomolgus monkey GPRC5D [3]) | % Positive (human GPRC5D [4]) [%] | MFI (human GPRC5D [4]) | % Positive (cynomolgus monkey GPRC5D [5]) [%] | MFI (cynomolgus monkey GPRC5D [5]) | % Positive (mouse GPRC5D [6]) [%] | MFI (mouse GPRC5D [6]) | % Positive (human GPRC5D [7]) [%] | MFI (human GPRC5D [7]) | Binder |
| --- | --- | --- | --- | --- | --- | --- | --- | --- | --- | --- | --- | --- | --- | --- |
| 12.3 | 55300 | 8.51 | 2250 | 13.6 | 61600 |  |  |  |  |  |  |  |  | ch90G6H3 (antibody, V domains shown) VH: QAYLQQSGAELVRSGASVKMSCKASGYTFTSYIMHWVKQTPGQGLEWIGYIYPGNGGTNYNQKFKDKATLSADTSSSTAYMQINSLTSEDSAVYFCARWGLRQGFAYWGQGTLVSVSA VL: DIVMTQSQKFMSTSVGDRVSVTCKASQNVGGNVAWYQQKPGQSPKALIYSTSYRNSGVPDRFTGSGSGTDFTLTISNVQSEDLAEYFCQQYNSYPFTFGSGTKLEIR |
|  |  |  |  |  |  | 92.7 | 451 | 76.7 | 3960 | 46.2 | 178 | 88.6 | 7380 | 87A3G8 (antibody, V domains shown, Mouse monoclonal antibody from hybridoma subclone) VH: QVQLKESGPGLVAPSQSLSITCTVSGFSLSSYSVYWVRQPPGKGLEWLGVIWAGGSTNYNSALMSRLSINKDKSKSQVFLKMNSLQTDDSAIYYCAMRWLPRGLDFWGQGTSVTVSS VL: DIVMTQSHKFMSTSVGDRVSITCKASQDVGTAVAWYQQKPGQSPKLLIYWASTRHTGVPDRFTGSGSGTDFTLTISNVQSEDLADYFCQQYSTYYTFGGGTKLEIK |
| 109 | 25500 | 0.463 | 2040 | 3.87 | 39700 |  |  |  |  |  |  |  |  | ch108C4C12 (antibody, V domains shown) VH: EVQLQQSGPELVKPGASVKMSCKASGYTFTSYVIHWVKQKTGQGLEWIGYFNPYNDGTKYNEEFKGKATLTSDKSSNTAYMELNSLTSDDSAVYFCARGGVRRYFDVWGAGTTVTVSS VL: DIQMTQSPSSLSASLGERVSLTCRASQDIGSNLNWLQQEPDGTIKRLIYATFGLDSGVPKRFSGSRSGSDYSLTISSLESEDFVDYYCQQYASFPYTFGGGTKLEIK |
|  |  |  |  |  |  | 98.2 | 894 | 96.7 | 2470 | 78.9 | 772 | 98.7 | 5250 | 110B4H5 (antibody, V domains shown, Mouse monoclonal antibody from hybridoma subclone) VH: EVQLQQSGPELVKPGASVKMSCKASGYTFTFYIMHWVKQKPGQGPEWIGYINPYNDGTKYNAKFKGKATLSSDRSSSTAYMELSSLTSEDSAVYYCARGGVRRYFDVWGAGTPVTVSS VL: DIQMTQSPSSLSASLGERVSLTCRSSQDIGSNLNWLQQEPDGTIKRLIYATFSLDSGVPKRFSGSRSGSHYSLTISSLESEDFVVYYCLQYGSFPYTFGGGTKLEIK |

From patent publication US20250368734A1 (ANTENGENE BIOLOGICS, published 2025)
